From patent US20200306367A1 (University of Washington, published 2020)

B1: G28-8LH-HBcAgY132A-His (scFv)
chain: DIQMTQSPASLSASVGETVTITCRASEKIYSYLAWYQQKQGKSPQLLVYNAKTLAEGVPSRFSVSGSGTQFSLRINSLQPEDFGTYYCQHHFGSPRTFGGGTKLEIKDLGGGGSGGGGSGGGGSGGGGSTGEVQLQQSGPELVKPGASMKISCKASGYSFTGYTMNWVKQSHGKTLEWIGLINPYNGVTSYNQKFKDKATLTVDKSSSTAYMELLSLTSEDSAIYYCARDYNYDYFDYWGQGTTLTVSSGGGGSGGGGSGGGGSGGGGSMDIDPYKEFGASVELLSFLPSDFFPSIRDLLDTASALYREALESPEHCSPHHTALRQAILCWGELMNLATWVGSNLEDPASRELVVSYVNVNMGLKIRQLLWFHISCLTFGRETVLEYLVSFGVWIRTPPAARPPNAPILSTLPETTVVHHHHHH
notes: Anti-human CD180 scFv (VL-VH) fused to HBcAg(1-149) Y132A and a 6xHis tag, made in CHO cells and purified on nickel resin; the tested protein carried it, since it was detected with anti-6xHis; also called aCD180-HBVAg; HBcAg-CD180
B2: G28-8 anti-human CD180 monoclonal antibody (antibody, V domains shown)
VH: EVQLQQSGPELVKPGASMKISCKASGYSFTGYTMNWVKQSHGKTLEWIGLINPYNGVTSYNQKFKDKATLTVDKSSSTAYMELLSLTSEDSAIYYCARDYNYDYFDYWGQGTTLTVSS
VL: DIQMTQSPASLSASVGETVTITCRASEKIYSYLAWYQQKQGKSPQLLVYNAKTLAEGVPSRFSVSGSGTQFSLRINSLQPEDFGTYYCQHHFGSPRTFGGGTKLEIK
notes: Commercial parent monoclonal antibody, a whole IgG; also called G28-8 mAb; parent G28-8 antibody

Assays:
human CD180 [1] = target: T1, human CD180 (human, UniProt Q99467 24-661); assay: flow cytometry on human B cells (figure legend)
T1 construct: whole, on cells; Native CD180 on primary human B cells; also called RP105; Bgp95
T1 sequence: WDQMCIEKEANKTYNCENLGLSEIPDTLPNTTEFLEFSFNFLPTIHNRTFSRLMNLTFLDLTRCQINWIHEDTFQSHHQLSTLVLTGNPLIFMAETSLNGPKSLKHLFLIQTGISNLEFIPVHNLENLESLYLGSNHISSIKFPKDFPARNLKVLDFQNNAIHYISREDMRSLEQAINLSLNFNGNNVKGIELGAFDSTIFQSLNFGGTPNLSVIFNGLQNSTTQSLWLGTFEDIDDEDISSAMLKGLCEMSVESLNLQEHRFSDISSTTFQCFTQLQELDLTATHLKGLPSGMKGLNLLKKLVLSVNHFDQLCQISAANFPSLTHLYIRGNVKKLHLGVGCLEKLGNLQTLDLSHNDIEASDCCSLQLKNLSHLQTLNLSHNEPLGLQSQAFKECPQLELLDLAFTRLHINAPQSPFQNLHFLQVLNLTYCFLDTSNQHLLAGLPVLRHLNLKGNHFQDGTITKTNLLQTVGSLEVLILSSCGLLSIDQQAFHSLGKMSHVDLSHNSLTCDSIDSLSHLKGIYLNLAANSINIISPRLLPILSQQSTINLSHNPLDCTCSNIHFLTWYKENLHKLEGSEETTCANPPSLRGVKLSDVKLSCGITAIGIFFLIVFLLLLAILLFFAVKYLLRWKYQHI

human CD180 [2] = target: T1, human CD180; assay: flow cytometry competition on human B cells; 2.5 ug unlabelled G28-8 first, then 10 ug G28-8-PE

Binder | binding result (human CD180 [1]) | binding result (human CD180 [2])
B1 | binds | 
B2 |  | binds
